Assay results reported in patent US20210009693A1 (MABSPACE BIOSCIENCES SUZHOU, published 2021).
Where a chain is given by its changes, count along the chain named. In names and notes the source's numbering stands. Where two headings read alike, the source gives them in different places. Blank lines part the entries; values can stand above or below the binder they belong to.

Experiments:
[1] = biological target: T1, Recombinant Human PD-L1/CD274 Protein (hPD-L1-his) (human, UniProt Q9NZQ7 19-238); assay: ELISA on coated hPD-L1-his; bound at pH7.4, then 2 h at pH7.4
T1 construct: range 19-238; ACRO Biosystem PD1-H5229, made in HEK293; also called human PD-L1-his; hPD-L-his
T1 sequence (Q9NZQ7 other isoform, or with tags, fused parts or gaps limits assumed): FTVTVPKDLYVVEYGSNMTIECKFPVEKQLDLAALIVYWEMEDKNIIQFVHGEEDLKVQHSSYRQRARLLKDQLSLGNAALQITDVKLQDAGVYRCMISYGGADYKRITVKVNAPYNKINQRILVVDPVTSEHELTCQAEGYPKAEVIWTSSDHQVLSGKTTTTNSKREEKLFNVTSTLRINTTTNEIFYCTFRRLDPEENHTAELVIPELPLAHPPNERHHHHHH

[2] = biological target: T1, Recombinant Human PD-L1/CD274 Protein …; assay: ELISA on coated hPD-L1-his; bound at pH7.4, then 2 h at pH5.5
[3] = biological target: T1, Recombinant Human PD-L1/CD274 Protein …; assay: as above; remark: listed apart in the source
Experimental: The pH-dependent binding affinity was further measured at various pH values, such as pH4, pH4.5, pH5.0, pH5.5, pH6.0, pH7.4. The measurement by ELISA was conducted similarly to the method described above. High-binding clear polystyrene 96 well plates were coated with 100 μl/well of a 0.5 μg/ml hPD-L1-his in high pH coating buffer and incubated overnight at 4° C. Then the coated plates were washed 3 times with shaking for 10s on an automatic plate washer with PBS+0.1% Tween 20 (Amresco). Then 200 μl of blocking buffer (1% BSA (Solarbio)+1% normal goat serum (Solarbio)+0.05% Tween 20 (Amresco)) was added to each well and the plates were then incubated for 2 hours at room temperature and washed 3 times as above. […] The plates were then washed once with 250 μl/well washing buffer at pH7.4, pH6.0, pH5.5, pH5.0, pH4.5 or pH4.0 and then 100 μl/well pH7.4 or pH5.5 washing buffer was added and the incubation was continued for 2 hours at RT with shaking. Afterwards, the plates was washed 3 times washing buffer at pH7.4 and 100 μl/well of a solution of HRP conjugated goat anti-hIgG HRP antibody (1:20000, Abcam) in pH7.4 dilution buffer was then added to each well of the plate. After that the plates were allowed to incubate for 60 min at room temperature followed by washing 3 times with 250 μl/well pH7.4 washing buffer. […] The plates were read on a Thermo Multiscan FC at 450 nm (see FIG. 23A-23F). […]

[4] = biological target: T2, human PD-L1 expressed on cells (human, UniProt Q9NZQ7 19-290); assay: FACS, IFN-gamma stimulated HCC827 cells
T2 construct: whole, on cells; also called hPD-L1 expressed on HCC827; hPD-L1 on MC38/hPD-L1 cells
T2 sequence (Q9NZQ7 19-290): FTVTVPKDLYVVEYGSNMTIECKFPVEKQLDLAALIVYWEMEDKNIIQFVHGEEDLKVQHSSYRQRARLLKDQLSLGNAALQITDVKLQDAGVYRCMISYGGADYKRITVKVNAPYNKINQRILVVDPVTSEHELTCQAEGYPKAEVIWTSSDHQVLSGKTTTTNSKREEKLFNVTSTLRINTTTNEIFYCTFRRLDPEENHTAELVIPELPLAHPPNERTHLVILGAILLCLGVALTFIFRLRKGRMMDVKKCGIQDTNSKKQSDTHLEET

[5] = biological target: T1, Recombinant Human PD-L1/CD274 Protein …; assay: ELISA on coated hPD-L1-his
[6] = biological target: hPD-L1 (antigen of the Biacore assay) (human, UniProt Q9NZQ7 19-238, limits assumed); assay: SPR (Biacore), antibody captured on anti-human Fc, antigen in flow
Chain of hPD-L1 (antigen of the Biacore assay) (Q9NZQ7 19-238 limits assumed): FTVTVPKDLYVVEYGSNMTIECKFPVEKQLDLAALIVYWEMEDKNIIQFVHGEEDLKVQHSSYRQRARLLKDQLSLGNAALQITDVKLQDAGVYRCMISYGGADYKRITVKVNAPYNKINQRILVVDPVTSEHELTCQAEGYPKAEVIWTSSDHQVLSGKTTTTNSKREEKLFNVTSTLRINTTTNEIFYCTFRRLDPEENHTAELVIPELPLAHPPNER
Experimental: A CM5 sensor chip was activated in each flow cell by 7-min injection (10 μl/min) of freshly prepared 1:1 50 mM N-hydroxysuccinimide (NHS): 200 mM 1-ethyl-3-(3-dimethylaminopropyl)-carbodiimide (EDC). Then anti-human Fc antibody (GE Healthcare) in a concentration of 10 μg/ml in 10 mM sodium acetate buffer PH 5.0 was injected onto the activated chip at 10 μl/min (HBS-EP running buffer: 10 mM HEPES, 150 mM NaCl, 3.4 mM EDTA, 0.005% surfactant P20, pH 7.4). The remaining active coupling sites were blocked by 7 min injection of 1M ethanolamine at 10 μl/min. The immobilization level of each flow cell is ˜9000RU. Antibodies were captured in FC2 by anti-human Fe IgG (GE Healthcare) to 200˜300RU. FC1 was used as the reference cell. Antigen was injected at varying concentrations after capture of antibody. The association time for antibody binding antigen is 180s. Surface Regeneration condition is 120s at 10 μl/min in Gly pH1.5. The signals with captured antibody subtracted from those without captured antibody were calculated with Biacore X100 evaluation software ver. 2.0 (Biacore).

[7] = biological target: T1, Recombinant Human PD-L1/CD274 Protein …; assay: ELISA, coated hPD-L1-his, acidic wash and incubation after binding at pH7.4
Experimental: (§1) The pH-dependent binding affinity was further measured at various pH values, such as pH4, pH4.5, pH5.0, pH5.5, pH6.0, pH7.4. The measurement by ELISA was conducted similarly to the method described above. High-binding clear polystyrene 96 well plates were coated with 100 μl/well of a 0.5 μg/ml hPD-L1-his in high pH coating buffer and incubated overnight at 4° C. Then the coated plates were washed 3 times with shaking for 10s on an automatic plate washer with PBS+0.1% Tween 20 (Amresco). Then 200 μl of blocking buffer (1% BSA (Solarbio)+1% normal goat serum (Solarbio)+0.05% Tween 20 (Amresco)) was added to each well and the plates were then incubated for 2 hours at room temperature and washed 3 times as above. […] The plates were then washed once with 250 μl/well washing buffer at pH7.4, pH6.0, pH5.5, pH5.0, pH4.5 or pH4.0 and then 100 μl/well pH7.4 or pH5.5 washing buffer was added and the incubation was continued for 2 hours at RT with shaking. Afterwards, the plates was washed 3 times washing buffer at pH7.4 and 100 μl/well of a solution of HRP conjugated goat anti-hIgG HRP antibody (1:20000, Abcam) in pH7.4 dilution buffer was then added to each well of the plate. After that the plates were allowed to incubate for 60 min at room temperature followed by washing 3 times with 250 μl/well pH7.4 washing buffer. Finally, 100 μl/well of TMB was added to each well for 15 min and the reaction was terminated using 50 μl/well of 0.16M/L sulfuric acid. The plates were read on a Thermo Multiscan FC at 450 nm (see FIG. 23A-23F). The measurements were performed in triplicate.

[8] = biological target: T3, Human PD-L1/CD274 with C-Fc Tag (hPD-L1-Fc) (human, UniProt Q9NZQ7 19-238); assay: blocking ELISA on coated hPD-L1-Fc; blocked ligand: biotinylated hPD-1-N297A
T3 construct: range 19-238; ACRO Biosystem PD1-H5258, made in HEK293; also called human PD-L1-Fc; not shown: Fc fragment of human IgG1 at C-terminus
T3 sequence (Q9NZQ7 19-238 limits assumed): as above
Experimental: High-binding clear polystyrene 96 well plates (Nunc) were coated with 100 μl/well of coating solution consisting of 1 μg/ml hPD-L1-Fc overnight at 4° C. Then the plates were washed once on an automatic plate washer using washing buffer (PBS+0.1% Tween 20 (Sigma)). 200 μl of blocking buffer (PBS+1% BSA+1% normal goat serum+0.05% Tween-20) was added to each well and incubated 2 hours at room temp. […] The plates were then washed 3 times using the method described above. […] After the plates were washed 3 times, 100 μl/well of a solution of 1:5000 diluted HRP conjugated Neutravidin antibody (Pierce) in dilution buffer was then added to each well of the plate. After that the ELISA plates were allowed to incubate for 60 min at RT, then the plates were washed 3 times with 250 μl/well washing buffer. Finally, 100 μl/well of TMB was added to each well and the reaction was terminated using 0.64M H₂SO₄. The plates were read on a Thermo Multiscan FC at 450 nM (see FIG. 18A to 18D).

[9] = biological target: T1, Recombinant Human PD-L1/CD274 Protein …; assay: ELISA on coated hPD-L1-his; bound at pH7.4, then 2 h at pH7.4; remark: listed apart in the source
Experimental: as §1

[10] = biological target: T4, human PD-L1-Fc mutant E58A (human); assay: ELISA on captured PD-L1-Fc, as in Example 18A
T4 construct: Position 58 counts on native human PD-L1 (NP_054862.1); also called E58A mutant
T4 sequence (chain, as listed by the source E58A E58A limits assumed): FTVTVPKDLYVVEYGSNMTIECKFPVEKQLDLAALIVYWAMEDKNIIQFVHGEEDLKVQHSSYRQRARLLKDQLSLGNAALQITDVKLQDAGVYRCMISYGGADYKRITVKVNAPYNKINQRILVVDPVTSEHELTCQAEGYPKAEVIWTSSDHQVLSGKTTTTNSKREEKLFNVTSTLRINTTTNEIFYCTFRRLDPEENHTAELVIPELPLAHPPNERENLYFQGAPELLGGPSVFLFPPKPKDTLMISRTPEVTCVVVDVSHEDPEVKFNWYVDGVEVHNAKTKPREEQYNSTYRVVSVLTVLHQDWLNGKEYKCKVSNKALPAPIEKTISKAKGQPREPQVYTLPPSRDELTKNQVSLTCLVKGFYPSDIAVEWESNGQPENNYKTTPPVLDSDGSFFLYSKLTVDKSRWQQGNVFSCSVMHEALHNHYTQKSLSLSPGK

[11] = biological target: T5, wild type human PD-L1-Fc protein (SEQ ID NO: 107) (human); assay: ELISA on captured PD-L1-Fc, as in Example 18A
T5 construct: Extracellular human PD-L1 (amino acid 19-238) with Fc fragment of human IgG1, expressed in 293T cells and used as culture supernatant; also called WT PD-L1; wild-type PD-L1
T5 sequence (chain, as listed by the source limits assumed): as the sequence (chain, as listed by the source E58A E58A limits assumed) above, with A40E counted along it

[12] = biological target: T2, human PD-L1 expressed on cells; assay: blocking FACS on HCC827 cells; blocked ligand: biotinylated hPD-1-N297A
Experimental: (§2) Log phase IFN-γ stimulated (500U/ml for 2 days) HCC827 cells were collected and resuspended in blocking buffer (5% BSA+PBS). 2×10\hat{ }5 cells were added to each tube and then washed once with PBS (1500 rpm, 5 mins, RT). […] After washing for three times with PBS, 100 μl/tube streptavidin-PE 1:200 in blocking buffer was added to each tube. The cells were incubated at 4° C. for 1 hr and then washed twice with PBS, followed by resuspending cells in 150 μl PBS for each sample. The cells were then transferred into FACS tube and the binding of the antibodies to the cells were detected with flow cytometry (ACEA Bioscience Novocyte) (see FIGS. 20A and 20B).

[13] = biological target: T1, Recombinant Human PD-L1/CD274 Protein …; assay: ELISA on coated hPD-L1-his; bound at pH7.4, then 2 h at pH5.5; remark: listed apart in the source
[14] = biological target: T1, Recombinant Human PD-L1/CD274 Protein …; assay: ELISA on coated hPD-L1-his; bound at pH7.4, then 2 h at pH7.4; remark: listed apart in the source
[15] = biological target: T1, Recombinant Human PD-L1/CD274 Protein …; assay: ELISA on coated hPD-L1-his; bound at pH7.4, then 2 h at pH5.5; remark: listed apart in the source
[16] = biological target: T2, human PD-L1 expressed on cells; assay: FACS, IFN-gamma stimulated HCC827 cells; remark: listed apart in the source
Experimental: Log phase IFN-γ stimulated (500U/ml for 2 days) HCC827 cells were collected and resuspended in blocking buffer (5% BSA+PBS). 2×10\hat{ }5 cells were added to each tube and then washed once with PBS (1500 rpm, 5 mins, RT). The 100 μl/tube serial diluted biotinylated PD-L1 antibodies with blocking buffer were added into corresponding tubes and incubate at 4° C. for 1 hr.

[17] = biological target: T1, Recombinant Human PD-L1/CD274 Protein …; assay: ELISA on coated hPD-L1-his; bound at pH7.4, then 2 h at pH7.4; remark: listed apart in the source
[18] = biological target: T2, human PD-L1 expressed on cells; assay: blocking FACS on HCC827 cells; blocked ligand: biotinylated hPD-1-N297A; remark: listed apart in the source
Experimental: as §2, with “RT). The 100 μl/tube serial diluted PD-L1 antibodies (see FIG. 8) with blocking buffer were added into corresponding tubes and incubate at 4° C. for 1 hr.” for “RT).”, “1:200 (EBiosciences)” for “1:200”, “Novocyte).” for “Novocyte) (see FIGS. 20A and 20B).”

B1: 21F11-C (antibody, V domains shown)
VH: QVQLQQPGAELVKPGASVKLSCKASGYTFTSNWMHWVKQRPGQGLEWIGMMHPNSGSINYNEKFKNKATLTADKSSSTAYMQLSSLTSEDSAVYYCARSYYGSSPYYFDYWGQGTTLTVSS
VL: DIQMTQTTSSLSASLGDRVTISCRASQDISNYLNWYQQKPDGTVKLLIYYTSRLHSGVPSRFSGSGSGTDFSLTISNLEEEDIATYFCQQGDTLPWTFGGGTKLEIK
notes: Mouse variable regions fused to a human IgG1 constant region; also called 21F11-chimeric; chimeric antibody 21F11
EC50 (read off the curve) [1]: ~0.01 µg/mL
EC50 (read off the curve) [2]: ~0.01 µg/mL

B3: 23A11-H3L5 CHO (antibody, V domains shown)
VH: QVQLVQSGAEVKKPGASVKLSCKASGYIFTTYWIHWVKQRPGQGLEWIGMIQPNSGGTKYNDQFKNRATLTVDKSISTAYMELSRLTSDDTAVYYCARGAGTVDYFDYWGQGTTLSISS
VL: DIVLTQSPASLAVSVGQRATITCRASESVDIYGNSFMHWYQQKPGQAPKLLIYRASNLESGIPARFSGSGSRTDFTLTINPVEAQDTATYYCQQSNDDPYTFGGGTKLETK
notes: CHO-produced counterpart of m16; also called 23A11-H3L5 produced in CHO cells
EC50 (read off the curve) [13]: ~8 ng/mL
EC50 (read off the curve) [14]: ~6 ng/mL
IC50 (read off the curve) [12]: ~0.05 µg/mL

Now from value to binder:

EC50 (read off the curve) [3]: ~0.02 µg/mL
EC50 (read off the curve) [4]: ~0.02 µg/mL
EC50 (read off the curve) [5]: ~2 ng/mL
Kd [6]: 43.2 nM
koff [6]: 0.0223 s⁻¹
kon [6]: 517000 M⁻¹ s⁻¹
binding signal at pH5 as percent of the signal at pH7.4 [7]: < 50%
binding signal at pH5.5 as percent of the signal at pH7.4 [7]: < 75%
IC50 (read off the curve) [8]: ~0.05 µg/mL
EC50 (read off the curve) [9]: ~0.01 µg/mL
% of binding of Ab to E58A mutant vs. that to WT PD-L1 [10]: 8.3%
Mean OD450 [10]: 0.111 OD450
OD450 nM of sample-1 [10]: 0.128 OD450
OD450 nM of sample-2 [10]: 0.094 OD450
Mean OD450 [11]: 1.34 OD450
OD450 nM of sample-1 [11]: 1.22 OD450
OD450 nM of sample-2 [11]: 1.47 OD450
IC50 (read off the curve) [12]: ~0.05 µg/mL
B2: 23A11-H3L5 (antibody, V domains shown)
VH: B3 VH with Q1L
VL: B3 VL with Q85N
notes: Human IgG1 constant region with N297A; biotinylated in the alanine-scan ELISA; also called 23A11-H3L5-bio; humanized 23A11

EC50 (read off the curve) [15]: ~0.02 µg/mL
EC50 (read off the curve) [16]: ~0.1 µg/mL
EC50 (read off the curve) [17]: ~0.01 µg/mL
IC50 (read off the curve) [18]: ~0.09 µg/mL
B4: 26F5-C (antibody, V domains shown)
VH: QVQLQQPGAELVKPGASVKLSCKASGYTFPSYWMHWMKQRPGQGLEWIGMIQPSTSGTIYNERFKNQVTLTVDKSSSTAYMQLSSQTSEDSAVYYCARGTGTVDYFDYWGQGTTLTVSS
VL: DIVLTQSPASLAVSLGQRATISCRASESVDSYGNSFIHWYQQKPGQPPKLLIHRASNLESGIPATFSGSGSRTDFTLTINPVEADDVATYYCQQSKEDPYTFGGGTKLEIK
notes: Mouse variable regions fused to a human IgG1 constant region; also called 26F5-chimeric; chimeric antibody 26F5
